In article doi:10.1101/2020.06.08.141267 (bioRxiv, 2020) one finds Kd data, which are given here for one molecule.

The test deals with T1, receptor-binding domain (RBD) of the SARS-CoV-2 spike (S) protein (SARS-CoV-2, UniProt P0DTC2).
T1 construct: not shown: His6, C-terminal, kept
Kind of test: BLI. Conditions: both partners purified.

B1: CC12.1 Fab (Fab, V domains shown)
VH: EVQLVESGGGLIQPGGSLRLSCAASGLTVSSNYMSWVRQAPGKGLEWVSVIYSGGSTFYADSVKGRFTISRDNSKNTLYLQMNSLRAEDTAVYYCARDLDVYGLDVWGQGTTVTVSS
VL: DIVMTQSPSFLSASVGDRVTITCRASQGISSYLAWYQQKPGKAPKLLIYAASTLQSGVPSRFSGSGSGTEFTLTISSLQPEDFATYYCQQLNSYPPKFTFGPGTKVEIK
notes: also called Fab CC12.1
Turning to B1, the Kd (as a rule, the constant that tells how readily two partners part at equilibrium) worked out at 17 nM.
